Measured values reported in the supplement of paper PMC11865577.

Key:
Experiment in all cases: pull-down binding Z-score (relative to library population); higher = stronger binding
[1] = test system: G-clamp-N3 (biotin conjugate); conditions: RNA library: Library-1 (pre-miRNA loops + repeats)
Method in brief: (§1)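 To score binding, a beads-only signal was subtracted, barcoded replicate probes were averaged with the highest and lowest dropped, and the value was converted to a Z-score using the library mean and standard deviation. The input was 1 μg of Cy5- or Cy3-end-labelled RNA library, heat-folded in phosphate/NaCl/KCl buffer and mixed for 60 min at 25 °C with streptavidin beads carrying 100 pmol of biotin-conjugated small molecule. Bound RNA was eluted in hot SDS and hybridised to a DNA barcode microarray at 55.5 °C for 20 h.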

[2] = test system: TO-3-N3 (biotin conjugate); conditions: RNA library: Library-2
Method in brief: as §1

[3] = test system: TO-3-N3-2 (biotin conjugate); conditions: RNA library: Library-2
Method in brief: as §1

TO-N3 (biotin conjugate) = conditions: RNA library: Library-2
Method in brief: as §1

[4] = test system: TO-N3-2 (biotin conjugate); conditions: RNA library: Library-2
Method in brief: as §1

Sequence | pull-down binding Z-score [1] | pull-down binding Z-score [2] | pull-down binding Z-score [3] | pull-down binding Z-score (TO-N3 (biotin conjugate)) | pull-down binding Z-score [4]
GGGAGGUAUGAUAUCGUGGUUCCU [hsa-mir-3689e] | -0.485 | 0.555 | 0.567 | 0.8 | 1.03
GGGAGUGGUUCCAUCACGCCUCCUCAC [hsa-mir-483] | -0.668 | -0.089 | -0.147 | 0.311 | 0.658
GGGAUAUUUGCAUUAUACUUAUCC [hsa-mir-5009] | -0.101 | 0.0656 | 0.015 | -0.0499 | -0.458
GGGAUGAGCCCUGGCUCUGUUUCCUAG [hsa-mir-378h] | -0.127 | 0.0333 | -0.0124 | 0.385 | 0.596
GGGCAGAAAUAGAUGGCCU [hsa-mir-4270] | 2.97 | 1 | 0.429 | 1 | 1.07
GGGCAGGGAGGGCAGGGCAGGCUCUGGGGUGGGGGGUCUGUGAGUCAGCCACGGCUC [hsa-mir-4516] | 2.89 | 6.78 | 7.72 | 6.16 | 4.69
GGGCAGGGAGUCAGAGGGGACCGCCC [hsa-mir-4740] | 2.09 | 2.19 | 1.93 | 1.98 | 1.24
GGGCAUUCCGGAUAGGCCGAGAAAGUGUUG [hsa-mir-6723] | 0.79 | 1.45 | 0.568 | 1.67 | 1.42
GGGCCAGUCUGACCGUUUCUAGGCG [hsa-mir-551a] | 0.753 | 0.541 | 0.662 | 1.41 | 1.75
GGGCCAUGUCUGUGAGGGCCCA [hsa-mir-4294] | 3.2 | -0.261 | 0.0026 | 0.221 | 0.936
GGGCCCCAAGACUCGGGGUUU [hsa-mir-4651] | -0.146 | 0.633 | -0.00221 | 0.65 | 0.197
GGGCCGUGCACCCGUGGGCCCC [hsa-mir-1915] | 1.73 | -0.204 | 0.0124 | 0.335 | 1.28
GGGCCUGGGUUUCUGAACAC [hsa-mir-196a-1] | 0.486 | 0.328 | 0.334 | 0.611 | 0.762
GGGCGCCGGCGGCCGGGAGAUCCGCGCUUCCUGAAUCCCGGCCGGCCCGCCCGGCGCCC [hsa-mir-4497] | -0.232 | 0.25 | -0.00137 | 0.447 | 1.22
GGGCGGAACACCCAGCCCC [hsa-mir-4417] | -1.31 | -0.4 | -0.246 | -0.21 | 0.785
GGGCGUGGUGGACAGCGAUGCAUCCC [hsa-mir-6803] | 1.56 | 0.532 | 0.187 | 0.84 | 1.19
GGGCUCGUGAUGGCUGGUGGGCCC [hsa-mir-345] | 3 | -0.497 | -0.191 | -0.356 | 0.665
GGGCUGCCCGGGCCGGUCGACCAGCGCGCCGUAGCUCC [hsa-mir-6724-2_6724-3_6724-1_6724-4] | 0.0384 | 0.0652 | -0.0157 | 1.03 | 2.24
GGGCUUUCUGGUUUUAUUUUAAGCCC [hsa-mir-186] | 0.465 | 0.594 | 0.0672 | 0.261 | -0.494
GGGGAGAGGGACACGCCCUGGGCUCUGCCCAGGGUGCAGCCGGACUGACUGAG [hsa-mir-1225] | 1.58 | 1.55 | 1.1 | 1.95 | 1.99
GGGGAUGGACUGGAAGUGGGCAGCAUGGAGCUGACCUUCAUCAUGGCUUGGCCAACAUAAUGCCUC [hsa-mir-1236] | -0.0946 | 1.72 | 1.33 | 1.98 | 1.38
GGGGCCCUACUUUAAGGGCCCU [hsa-mir-8087] | 1.03 | 0.997 | 0.194 | 0.868 | -0.706
GGGGCCUGUGGUCCC [hsa-mir-1268a] | 0.885 | -0.0124 | -0.144 | -0.282 | -0.675
GGGGCUCUU [hsa-mir-4634] | -0.697 | 0.0873 | 0.0655 | 0.365 | 0.21
GGGGCUGAGGCUGAGUCUUCCUCCC [hsa-mir-6756] | 0.713 | 0.154 | 0.101 | 0.806 | 1.53

Sequence | pull-down binding Z-score [1] | pull-down binding Z-score [2] | pull-down binding Z-score [3] | pull-down binding Z-score (TO-N3 (biotin conjugate)) | pull-down binding Z-score [4]
GGGGCUGGCUGGGUCUGGUAGUGGGCAUCAGCUGGCCCU [hsa-mir-1207] | 2 | 2.53 | 1.51 | 2.6 | 1.22
GGGGCUGGUUGUCUA [hsa-mir-6080] | 0.388 | 0.297 | -0.165 | 0.377 | 0.516
GGGGGCAGGCAGGGGAUUGGCUAAGAACCUGACUCUUGC [hsa-mir-7703] | -0.0197 | 2.18 | 1.44 | 2.48 | 1.75
GGGGGCAGGCUGCCACCUCCUG [hsa-mir-8089] | -0.161 | 1.5 | 0.599 | 1.89 | 1.36
GGGGGUGGCCGGGGCUGACCCU [hsa-mir-939] | 0.0126 | 2.48 | 1.8 | 2.56 | 2.08
GGGGUAGAAGCCACCCG [hsa-mir-4466] | 0.458 | 0.149 | 0.0166 | 0.492 | 1.46
GGGGUCUUGCUCUAUU [hsa-mir-6088] | 0.123 | 0.523 | 0.136 | 0.572 | 0.111
GGGGUGGCUGCGGGCCUUCUGAAGGUCUCCC [hsa-mir-662] | 0.76 | 0.427 | 0.448 | 0.946 | 1.24
GGGGUUUUUGCCUCCAACUGACUCC [hsa-mir-155] | -0.504 | -0.366 | -0.283 | -0.292 | -0.135
GGGUCAGGUCUGCAGCCUUGUAUCUGCUGAUCC [hsa-mir-6881] | -0.0593 | -0.183 | -0.227 | -0.234 | -0.107
GGGUCAGUGGCAGAGCCAGGCAGAUGCUGACCC [hsa-mir-6832] | 2.93 | 0.349 | 0.267 | 0.45 | 0.72
GGGUCCUAAGGUGUGUCCUC [hsa-mir-1976] | -0.979 | -0.224 | -0.0978 | 0.25 | 0.812
GGGUCGUGGGAAAGUGUUGACCC [hsa-mir-4655] | 1.79 | 0.166 | 0.276 | 0.5 | 0.588
GGGUGAGAGUGCUUUCUGAAUGCAGUGCACCC [hsa-mir-500b] | 0.8 | 0.297 | 0.131 | 0.52 | 0.985
GGGUGAUACACAAGCCUGACCCUCCC [hsa-mir-6793] | -0.976 | 0.244 | 0.55 | 0.416 | 0.954
GGGUGGGCGGGGGCGGCCGGUGGGAACCCCGCCCCGCCCCGCGCCCGCACUCACCC [hsa-mir-7108] | 0.489 | 6.31 | 6.86 | 5.22 | 4.08
GGGUGUAUGGUAUAGGGGUAGCCU [hsa-mir-3137] | 3.31 | 2.13 | 1.54 | 2.5 | 2.42
GGGUUCAAUAGAUUGCUUUAGCUGAAGCAAGCCU [hsa-mir-8054] | -0.803 | 0.125 | 0.131 | 0.00977 | -0.201
GGGUUGCAUCCUAAGCUGUGCUGGAGCUUCCC [hsa-mir-623] | -0.84 | 0.567 | 0.384 | 0.877 | 0.682
GGUAAGGUCUUUCAGCC [hsa-mir-7150] | 0.213 | 0.648 | 0.105 | 0.622 | 0.413
GGUACUUUAUAAUUUCAAAAAGUCCC [hsa-mir-361] | -0.194 | -1.13 | -0.356 | -1.51 | -1.41
GGUAGAGAUGAUUUUUCCUACU [hsa-mir-5003] | 0.245 | 1.76 | 0.65 | 1.78 | 0.226
GGUAGGUUACGUCAUGCUGUUCUACC [hsa-mir-140] | 0.599 | -0.251 | -0.139 | -0.0663 | 0.193
GGUAUGGAUUCUGUUGUUUUGGCAACAUUCU [hsa-mir-8088] | 0.269 | -0.382 | 0.124 | -0.328 | -0.244
GGUCAGGUGGUGCCCUCCUUCCAUGGGUAGAGCCAGAGAUGGUGGGUUCUGGCU [hsa-mir-6131] | 0.859 | 0.869 | 0.142 | 1.16 | 2.25

Sequence | pull-down binding Z-score [1] | pull-down binding Z-score [2] | pull-down binding Z-score [3] | pull-down binding Z-score (TO-N3 (biotin conjugate)) | pull-down binding Z-score [4]
GGUCUGAGCCCAUGUGUGGACCUAGGUCUGCUGUUAAACUGACU [hsa-mir-6831] | -0.752 | 0.286 | 0.106 | 0.492 | 0.647
GGUGCAAAGCCUGCCCGCCCC [hsa-mir-5090] | -0.81 | -0.134 | -0.136 | 0.254 | 1.09
GGUGCAGUCAGUCCUAGCUC [hsa-mir-3135b] | -1.49 | -0.343 | 0.0356 | 0.224 | 1.06
GGUGGCAAUCAAGGUCUAGCCACC [hsa-mir-4733] | 1.02 | 0.369 | 0.265 | 0.287 | 0.228
GGUGGGCCUCUGCUCUGGCCCCUCC [hsa-mir-1343] | 0.11 | 0.0146 | -0.315 | 0.0649 | 0.301
GGUGGGGGCUCUGAGUGGGGAAAGUGGGGGCCUAGGGGAGGUCACAGU [hsa-mir-4259] | 0.943 | 4.45 | 3.57 | 4.21 | 2.4
GGUGGGUGCC [hsa-mir-1268b] | -0.587 | -0.142 | -0.32 | -0.332 | -0.075
GGUGGGUGGGAAGUAAGAUCUGACCUGGACUCCAUCCCACCCACC [hsa-mir-4640] | 0.122 | 4.87 | 4.64 | 5.35 | 4.38
GGUGGUUGUGGGAGUCACU [hsa-mir-4418] | -0.575 | 1.58 | 1.89 | 2.18 | 1.93
GGUGUCAUGCCCCAAGAUAACC [hsa-mir-634] | -0.532 | -0.514 | -0.28 | -0.387 | 0.0681
GGUGUCGAACUCAUGGCUGCCACC [hsa-mir-6782] | 0.197 | -0.346 | -0.167 | -0.065 | 0.629
GGUUCAAGUUUGGCUCCAUCUUUAUGAAA [hsa-mir-4506] | -0.636 | -0.0094 | 0.109 | 0.0775 | 0.415
GGUUCCCACGCCGCGGCAACC [hsa-mir-6776] | -1.36 | 0.0159 | -0.135 | 0.217 | 0.293
GGUUCUCAGUCAGAACC [hsa-mir-6813] | 0.755 | -0.0211 | -0.346 | -0.372 | -1.21
GGUUCUGGGGUGUAGACGCUGCUGGCCAGCC [hsa-mir-4707] | 1.08 | 0.287 | 0.282 | 0.587 | 0.971
GGUUCUUCCCGAAGC [hsa-mir-4710] | 0.205 | -0.0117 | -0.22 | 0.0409 | -0.359
GGUUGCUGGAGGUCAGC [hsa-mir-6871] | 0.0274 | 0.155 | 0.233 | 0.489 | 0.785
GGUUGGCCGCUGACCCCCGCGGGGCCCCCGGCGGCC [hsa-mir-3195] | 0.0226 | -0.103 | -0.293 | 0.0623 | 0.847
GGUUGGGGUGGGCUGCCUGUGGACCAAUC [hsa-mir-4525] | 0.722 | 2.14 | 1.06 | 2.44 | 1.94
GGUUGUUAGAUAGACAACU [hsa-mir-4510] | 0.718 | 0.632 | 0.19 | 0.328 | -0.496
GGUUGUUUAAUUAGGAACCAACU [hsa-mir-190b] | -0.019 | -0.247 | 0.0266 | -0.293 | -0.593
GGUUUCCUUCGGGGCAGGUGGGGACUGCUCCUUUGGGAGGAAGGAGGAGGCC [hsa-mir-4453] | 1.28 | 2.21 | 1.96 | 2.34 | 2.11
GGUUUCGGGCUGCC [hsa-mir-661] | 0.142 | 0.148 | 0.067 | 0.249 | 0.74
